From US20250297255A1 (ARSENAL BIOSCIENCES, published 2025) come the findings set out here.

The chains are these.
B1: TMPRSS4 Ab30 scFv (VH-VL) (scFv)
scFv: QVQLVQSGAEVKKPGASVKVSCKASGYTFTTYYMHWVRQAPGQGLEWMGWMNPNSGNTGYAQKFQGRVTMTRDTSTSTVYMELSSLRSEDTAVYYCARARTWLLSPFDYWGQGTLVTVSSGGGGSGGGGSGGGGSEIVMTQSPATLSVSPGERATLSCRASQSVGRYLAWYQQKPGQAPRLLIYGASTRATGIPARFSGSGSGTEFTLTISSLQSEDFAVYYCQHYDSSPMYTFGQGTKLEIK
notes: on monoclonal phage in the screen
B2: TMPRSS4 Ab39 scFv (VH-VL) (scFv)
scFv: QVQLVQSGAEVKKPGASVKVSCKASGGSFSGYAVSWVRQAPGQGLEWLGVINPSDSWTAFAQKFQGRVTMTRDTSTSTVYMELSSLRSEDTAVYYCAREREDDAFDIWGQGTTVTVSSGGGGSGGGGSGGGGSDIQMTQSPSSLSASVGDRVTITCRASQGIRNWLAWYQQKPGKAPKLLIYRASTLQSGVPSRFSGSGSGTDFTLTISSLQPEDFATYYCQQSYTTPFTFGQGTKLEIK
notes: as for B1
B3: TMPRSS4 Ab33 scFv (VH-VL) (scFv)
scFv: QVQLVQSGAEVKKPGASVKVSCKASGYTFSNYYMHWVRQAPGQGLEWVGWMNPKSGNTGYAQKFQGRVTMTRDTSTSTVYMELSSLRSEDTAVYYCARGRTWIQSSLGYWGQGTLVTVSSGGGGSGGGGSGGGGSDIQMTQSPSSLSASVGDRVTITCRASQYISRWLAWYQQKPGKAPKLLIYGSSTLQSGVPSRFSGSGSGTDFTLTISSLQPEDFATYYCQQYYSTPFTFGPGTKLEIK
notes: as for B1
B4: TMPRSS4 Ab28 scFv (VH-VL) (scFv)
scFv: QVQLVQSGAEVKKPGASVKVSCKASGYTFTGYYMHWVRQAPGQGLEWMGWMNPNSGNTGYAQKFQGRVTMTRDTSTSTVYMELSSLRSEDTAVYYCARLRAKGGGFDYWGQGTLVTVSSGGGGSGGGGSGGGGSDIQMTQSPSSLSASVGDRVTITCRASQGIGNYLAWYQQKPGKAPKLLIYAASSLESGVPSRFSGSGSGTDFTLTISSLQPEDFATYYCQQGYRFPPTFGPGTKVDIK
notes: as for B1
B5: TMPRSS4 Ab3 scFv (VH-VL) (scFv)
scFv: QVQLVQSGAEVKKPGSSVKVSCKASGYTFTSYDINWVRQAPGQGLEWMGGIIPIFGTTKFAQKFQGRVTITADESTSTAYMELSSLRSEDTAVYYCARDWYSSSWYNGDRGDWFDPWGQGTLVTVSSGGGGSGGGGSGGGGSDIVMTQSPLSLPVTPGEPASISCRSSGSLLHSNGYNYLDWYLQKPGQSPQLLIYAASSLQSGVPDRFSGSGSGTDFTLKISRVEAEDVGVYYCMQGTHWPGTFGQGTKVEIK
notes: as for B1
B6: TMPRSS4 Ab32 scFv (VH-VL) (scFv)
scFv: QVQLVQSGAEVKKPGSSVKVSCKASGGTFSSYAISWVRQAPGQGLEWMGRINPSGGSTSYAQKFQGRVTMTRDTSTSTVYMELSSLRSEDTAVYYCARGRYSSSSWGQGTLVTVSSGGGGSGGGGSGGGGSDIQMTQSPSSLSASVGDRVTITCRASQSISTYLNWYQQKPGKAPKLLIYAASSLQRGVPSRFSGSGSGTDFTLTISSLQPEDFATYYCQQSYTTPLTFGGGTKVEIK
notes: as for B1
B7: TMPRSS4 Ab41 scFv (VH-VL) (scFv)
scFv: QVQLVQSGAEVKKPGASVKVSCKASGGTFSSYAISWVRQAPGQGLEWMGWMNPNSGDTHYAQKFQGRVTMTRDTSTSTVYMELSSLRSEDTAVYYCAREGSSWYYDAFDIWGQGTLVTVSSGGGGSGGGGSGGGGSDIQMTQSPSSLSASVGDRVTITCRASQSISRWLAWYQQKPGKAPKLLIYAASTLQTGVPSRFSGSGSGTDFTLTISSLQPEDFATYYCLQHSSYPFTFGQGTKVEIK
notes: as for B1
B8: TMPRSS4 Ab38 scFv (VH-VL) (scFv)
scFv: QVQLAQSGAEVKKPGASVKVSCKASGYTFTRHYIQWVRQAPGQGLEWMGWINPNSGNTGYAQKFQGRVTMTRDTSTSTVYMELSSLRSEDTAVYYCARGRQWLRGEYFQHWGQGTLVTVSSGGGGSGGGGSGGGGSDIQMTQSPSSLSASVGDRVTITCQASQDISRYLNWYQQKPGKAPKLLIYGASNLLSGVPSRFSGSGSGTDFTLTISSLQPEDFATYYCQQTHTTPYTFGQGTRLEIK
notes: as for B1
B9: TMPRSS4 Ab42 scFv (VH-VL) (scFv)
scFv: QVQLVQSGAEVKKPGASVKVSCKASGYSFTSHYMHWVRQAPGQGLEWMGWMNPNSGNTGYAQKFQGRVTMTRDTSTSTVYMELSSLRSEDTAVYYCARLGQQLDYWGQGTLVTVSSGGGGSGGGGSGGGGSDIQMTQSPSSLSASVGDRVTITCRASQSIRNYLNWYQQKPGKAPKLLIYEASRLQSGVPSRFSGSGSGTDFTLTISSLQPEDFATYYCQQSYSAPPTFGPGTKVDIK
notes: as for B1
B10: TMPRSS4 Ab34 scFv (VH-VL) (scFv)
scFv: QVQLVQSGAEVKKPGASVKVSCKASGYTFTGYYIHWVRQAPGQGLEWMGWMNPHSGNTGYAQKFQGRVTMTRDTSTSTVYMELSSLRSEDTAVYYCAREGGRYSSGRLGYWGQGTLVTVSSGGGGSGGGGSGGGGSDIQMTQSPSSLSASVGDRVTITCRASQGISSWLAWYQQKPGKAPKLLIYAASTLQTGVPSRFSGSGSGTDFTLTISSLQPEDFATYYCQQSKSIPITFGGGTKVEIK
notes: as for B1
B11: TMPRSS4 Ab37 scFv (VH-VL) (scFv)
scFv: EVQLLESGGGLVQPGGSLRLSCAASGFTFSSYAMHWVRQAPGKGLEWVSYISSSGSTVYYADSVKGRFTISRDNSKNTLYLQMNSLRAEDTAVYYCARVSNVTPRSGFGYWGQGTLVTVSSGGGGSGGGGSGGGGSDIQMTQSPSSLSASVGDRVTITCRASQSISRYLNWYQQKPGKAPKLLIYSASTLQSGVPSRFSGSGSGTDFTLTISSLQPEDFATYYCQQAHSFPPSFGQGTKLEIK
notes: as for B1
B12: TMPRSS4 Ab4 scFv (VH-VL) (scFv)
scFv: QVQLVQSGAEVKKPGASVKVSCKASGYFFTTYYLHWVRQAPGQGLEWMGVINPNSRLTSYAESFQGRVTMTRDTSTSTVYMELSSLRSEDTAVYYCEREMFPSSYGIDVWGQGTTVTVSSGGGGSGSGGGGSGGGGSDIVMTQSPLSLPVTPGEPASISCRSSQSLLHSNGYNYLDWYLQKPGQSPQLLIYAASTLQSGVPDRFSGSGSGTDFTLKISRVEAEDVGVYYCMQGTHWPPTFGQGTKLEIK
notes: as for B1
B13: TMPRSS4 Ab35 scFv (VH-VL) (scFv)
scFv: QVQLVQSGAEVKKPGASVKVSCKASGYTFTGYYMHWVRQAPGQGLEWMGKISAHSGETKYAQNVQGRVTMTRDTSTSTVYMELSSLRSEDTAVYYCARANYYGDYVNYYYGMDVWGQGTTVTVSSGGGGSGGGGSGGGGSDIQMTQSPSSLSASVGDRVTITCQASQDISNYLNWYQQKPGKAPKLLIYKASSLESGVPSRFSGSGSGTDFTLTISSLQPEDFATYYCQQTYTIPITFGQGTRLEIK
notes: as for B1
B14: TMPRSS4 Ab48 scFv (VH-VL) (scFv)
scFv: QVQLVQSGAEVKKPGASVKVSCKASGYTFTGYYLHWVRQAPGQGLEWMGWISAYNGNTNYAQNLQGRVTMTRDTSTSTVYMELSSLRSEDTAVYYCARHSYSGSYSTLPYYGMDVWGQGTTVTVSSGGGGSGGGGSGGGGSDIQMTQSPSSLSASVGDRVTITCRASQGISNYLAWYQQKPGKAPKLLIYTASTLFPGVPSRFSGSGSGTDFTLTISSLQPEDFATYYCQQSYSIPLTFGGGTKVEIK
notes: as for B1
B15: TMPRSS4 Ab43 scFv (VH-VL) (scFv)
scFv: QVQLVQSGAEVKKPGASVKVSCKASGYTFIGYYMHWVRQAPGQGLEWMGRINPNSGETNYAQKFQGRVTMTRDTSTSTVYMELSSLRSEDTAVYYCARVRVRGVIHPGFDPWGQGTLVTVSSGGGGSGGGGSGGGGSDIQMTQSPSSLSASVGDRVTITCQASQDISNYLNWYQQKPGKAPKLLIYAASSLQSGVPSRFSGSGSGTDFTLTISSLQPEDFATYYCQQSYSTPVTFGPGTKVDIK
notes: as for B1
B16: TMPRSS4 Ab36 scFv (VH-VL) (scFv)
scFv: EVQLLESGGGLVQPGGSLRLSCAASGFTFSSRAMSWVRQAPGKGLEWVSRINYDGSATTYADSVKGRFTISRDNSKNTLYLQMNSLRAEDTAVYYCARGITIFGVFDYWGQGTLVTVSSGGGGSGGGGSGGGGSDIQMTQSPSSLSASVGDRVTITCRASQSISTWLAWYQQKPGKAPKLLIYRASNLQSGVPSRFSGSGSGTDFTLTISSLQPEDFATYYCQQSYSTPLTFGGGTKVEIK
notes: as for B1
B17: TMPRSS4 Ab44 scFv (VH-VL) (scFv)
scFv: QVQLVQSGAEVKKPGASVKVSCKASGYTFRNYYIHWVRQAPGQGLEWMGRINPNSGGTNYAQKFQGRVTMTRDTSTSTVYMELSSLRSEDTAVYYCARARIAVAVSGFGYWGQGTLVTVSSGGGGSGGGGSGGGGSDIQMTQSPSSLSASVGDRVTITCQASQDISNYLNWYQQKPGKAPKLLIYAASSLHSGVPSRFSGSGSGTDFTLTISSLQPEDFATYYCQESSSFPYTFGPGTKVDIK
notes: as for B1
B18: TMPRSS4 Ab45 scFv (VH-VL) (scFv)
scFv: QVQLVQSGAEVKKPGASVKVSCKASGYTFSRWYMHWVRQAPGQGLEWMGRINPNSGGTNYAQKFQGRVTMTRDTSTSTVYMELSSLRSEDTAVYYCARVGGYGWFDPWGQGTLVTVSSGGGGSGGGGSGGGGSDIQMTQSPSSLSASVGDRVTITCQATQDIRNYLNWYQQKPGKAPKLLIYATSSLQSGVPSRFSGSGSGTDFTLTISSLQPEDFATYYCQQSYSPPYTFGQGTKLEIK
notes: as for B1
B19: TMPRSS4 Ab31 scFv (VH-VL) (scFv)
scFv: QVQLVQSGAEVKKPGSSVKVSCKASGYTFRGSGISWVRQAPGQGLEWMGIIYPADSETRYSPSFQGRVTITADESTSTAYMELSSLRSEDTAVYYCARESSSWDYFDYWGQGTLVTVSSGGGGSGGGGSGGGGSEIVMTQSPATLSVSPGERATLSCRASQSVRSYLAWYQQKPGQAPRLLIYGASTRATGIPARFSGSGSGTEFTLTISSLQSEDFAVYYCQQHGSLPLTFGQGTKVEIK
notes: as for B1
B20: TMPRSS4 Ab40 scFv (VH-VL) (scFv)
scFv: QVQLVQSGAEVKKPGASVKVSCKASGGTFSSYAISWVRQAPGQGLEWMGIINPRGGSTNYAQKFQGRVTMTRDTSTSTVYMELSSLRSEDTAVYYCAREGSSWYYDAFDIWGQGTMVTVSSGGGGSGGGGSGGGGSDIQMTQSPSSLSASVGDRVTITCRASQSISSYLNWYQQKPGKAPKLLIYAAYNLQSGVPSRFSGSGSGTDFTLTISSLQPEDFATYYCQQSYSIPFTFGGGTKVEIK
notes: as for B1

T1 sequence (Q9NRS4 whole entry): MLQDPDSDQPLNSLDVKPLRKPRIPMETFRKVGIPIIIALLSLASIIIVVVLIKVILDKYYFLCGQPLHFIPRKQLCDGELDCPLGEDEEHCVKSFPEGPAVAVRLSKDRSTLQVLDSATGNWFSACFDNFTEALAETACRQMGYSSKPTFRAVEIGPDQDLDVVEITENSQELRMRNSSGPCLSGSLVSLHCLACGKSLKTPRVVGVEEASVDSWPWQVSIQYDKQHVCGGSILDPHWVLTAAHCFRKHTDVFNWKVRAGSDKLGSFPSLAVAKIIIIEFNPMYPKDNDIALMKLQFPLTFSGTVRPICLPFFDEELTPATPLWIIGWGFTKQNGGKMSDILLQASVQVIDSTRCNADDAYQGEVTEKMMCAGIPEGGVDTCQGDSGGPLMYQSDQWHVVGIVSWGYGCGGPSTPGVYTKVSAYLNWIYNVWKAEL

This test addresses T1, Human TMPRSS4 (Transmembrane protease, serine 4), wild type full length (human, UniProt Q9NRS4 1-437).
T1 construct: Type II membrane protein over-expressed on HEK293T cells (also endogenous on H1975 and LUDLU-1 cells); also called TMPRSS4 WT; HEK293T-TMPRSS4
In words: flow cytometry, monoclonal phage on HEK293T-TMPRSS4 cells.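 Further: bound phage detected with a PE-labelled mouse anti-M13 monoclonal antibody, read by flow cytometry.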 Background: Flow cytometry measures light scatter and fluorescence of single cells or particles in a stream.
As for B1, the binding result was “binds”.
In the case of B2, the binding result is “binds”.
As for B3, the binding result was “binds”.
Turning to B4, the binding result is “binds”.
As for B5, the binding result is “binds”.
B6: the binding result is on record as “binds”.
The entry for B7 is “binds”; for B8 it is “binds”.
The result for B9 reads “binds”; that for B10, “binds”.
For the molecule B11, the binding result was “binds”.
In the case of B12, the binding result is recorded as “binds”.
Take B13: the binding result is “binds”.
The result for B14 reads “binds”; that for B15, “binds”; that for B16, “binds”.
The entry for B17 is “binds”; for B18 it is “binds”.
With B19, the binding result is listed as “binds”.
The result for B20 reads “binds”.
